# Assay results as given in patent US10487318.
# T1: 33mer peptide (LQLQPFPQPQLPYPQPQLPYPQPQLPYPQPQPF)
# T1 chain: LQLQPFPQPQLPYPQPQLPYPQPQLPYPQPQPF
# T2: fluorescently quenched α-gliadin hexapeptide analogue QXL520-PQPQLP-K(5-FAM)-NH2
# T2 chain: PQPQLP
# Target: T1, 33mer peptide …
Protein,Degradation pattern of 33mer (60 min),activity against the 33mer peptide
Homologue 13 (NCBI YP_004348568) (protein) MARHLHAGSEPKVITESKCIGACDPAERIHVTVMLRREGEQALDALVDKLASGDPAAKPVSREDFAKRFGARADDIQHTEAFAKRHQLTVERVDPVQSVVELAGTIAQFENAFGVKLEKYEHHAIGSFRARTGAIALPDELHDAVTAVLGLDTRPQAHPHFRFRPPFQPARSGAGTSYTPLQLASIYNFPEGDGAGQCIALVELGGGYRAADIRQYFEQLGVKPPKLVDVSVNGGRNAPTDDPNGPDGEVALDIEVAGAIAPGATIAVYFAGNSDAGFIQSVNQAIHDSTNRPSVVSISWGGPEASWTQQSITAFNNVLKTAASLGVTVCAASGDSGSSDGLQDGSNHVDFPASSPYVLACGGTTLDAQAGQGIRREVVWNDEAASGGAGGGGVSAVFPAPSYQKGLSAKATGGGSTPLSQRGVPDVAGDASPTTGYIISIAGTTAVLGGTSAVAPLWAALIARINANGKSPVGWANPKLYAQPGAFHDITQGNNGAFAASEGWDACTGLGSPDGAKVAAALQGASGGSQQGRATGA,Max-like,demonstrated significant activity against the 33mer peptide
Homologue 12 (NCBI YP_003658449) (protein) MTQPRYTPLPGSEREAPLLAARSNATAARASRAQTASATVVLRRRSELPEALVLDQQFISSDELAARYGADPVDIEKVRSVLERFKVSVVEVDAASRRVKVEGAVADIERAFNIALHSASGTDPHSGRGFEYRYRTGVLSVPAELGGIVTAVLGLDNRRQAETRLRVVPAAALGSSYTPVQLGEIYNFPQDATGAGQRIAIIELGGGYTPAGLRRYFASLGVVPPKVAAVSVDGAQNAPGPDPGADGEVQLDVEVAGALAPGAHVLVYFAPNTDQGFLDAVSQAAHATPPPTAISISWGASEDSWTASARDALNQALRDAAALGVTVTAAAGDSGSSDGVPDRRAHVDFPASSPYVLATGGTSLRADPATGVVQSETVWNDSQGSTGGGVSDVFPRPAWQAHVDVPHAGRGVPDVSAVADPATGYQVLVDNQPAVIGGTSAVAPLWAALVARLAESLGRPLGLLQPLVYPRTPGSTAYPGFRDITIGNNGAYKAGKGWDAATGLGVPDGTELLAHLRGLNGSE,WT-like,–
Homologue 26 (NCBI YP_004030750) (protein) MHSYLKQQSHMQSYLEQENHMRSYLEMRKKPYFDDLANIRPGGLTPAQVCQAYQFAKVQPVRPVKLGIVSLAGQYLSSDMSKAFTGYGLPTPVVSTAGSQVLGDLWSNVENMMDIEIAGAAWAYATGTAATLLMQFEPNNETGIPNAINALVAAGCEVISISWGAPANLQTMEAITARKEACKQAAVQNVHVFAASGDESLNDGTNSRTPDDPCCDPNVWGVGGTRLVLQADGSIAQESAWGDGNAADKGGGGGFDSREPLPDYQVGVVHSEHRGSPDSSANADPGTGYAIVANGQWLIGGGTSASAPLTAGYVAAILSTLPGPISQSVLQRKLYTAHKTAFRDILLGSNGAPARPGWEEATGLGSINGPGLAAALQS,Max-like,had very strong activity comparable to KumaMax™ at breaking down the 33mer peptide

# Target: T2, fluorescently quenched α-gliadin …
row,Protein,Fold Change in Activity of PQ Hydrolysis Relative to Wild Type Kumamolysin-As [fold]
1,"Kumamolysin-As G319S, D368S (protein) MSDMEKPWKEGEEARAVLQGHARAQAPQAVDKGPVAGDERMAVTVVLRRQRAGELAAHVERQAAIAPHAREHLKREAFAASHGASLDDFAELRRFADAHGLALDRANVAAGTAVLSGPVDAINRAFGVELRHFDHPDGSYRSYLGEVTVPASIAPMIEAVLGLDTRPVARPHFRMQRRAEGGFEARSQAAAPTAYTPLDVAQAYQFPEGLDGQGQCIAIIELGGGYDEASLAQYFASLGVPAPQVVSVSVDGASNQPTGDPSGPDGEVELDIEVAGALAPGAKFAVYFAPNTDAGFLDAITTAIHDPTLKPSVVSISWSGPEDSWTSAAIAAMNRAFLDAAALGVTVLAAAGDSGSTDGEQDGLYHVSFPAASPYVLACGGTRLVASGGRIAQETVWNDGPDGGATGGGVSRIFPLPAWQEHANVPPSANPGASSGRGVPDLAGNADPATGYEVVIDGEATVIGGTSAVAPLFAALVARINQKLGKAVGYLNPTLYQLPADVFHDITEGNNDIANRAQIYQAGPGWDPCTGLGSPIGVRLLQALLPSASQPQPGSTENLYFQSGALEHHHHHH",2
2,Kumamolysin-As D293A (protein) MSDMEKPWKEGEEARAVLQGHARAQAPQAVDKGPVAGDERMAVTVVLRRQRAGELAAHVERQAAIAPHAREHLKREAFAASHGASLDDFAELRRFADAHGLALDRANVAAGTAVLSGPVDAINRAFGVELRHFDHPDGSYRSYLGEVTVPASIAPMIEAVLGLDTRPVARPHFRMQRRAEGGFEARSQAAAPTAYTPLDVAQAYQFPEGLDGQGQCIAIIELGGGYDEASLAQYFASLGVPAPQVVSVSVDGASNQPTGDPSGPDGEVELDIEVAGALAPGAKFAVYFAPNTAAGFLDAITTAIHDPTLKPSVVSISWGGPEDSWTSAAIAAMNRAFLDAAALGVTVLAAAGDSGSTDGEQDGLYHVDFPAASPYVLACGGTRLVASGGRIAQETVWNDGPDGGATGGGVSRIFPLPAWQEHANVPPSANPGASSGRGVPDLAGNADPATGYEVVIDGEATVIGGTSAVAPLFAALVARINQKLGKAVGYLNPTLYQLPADVFHDITEGNNDIANRAQIYQAGPGWDPCTGLGSPIGVRLLQALLPSASQPQPGSTENLYFQSGALEHHHHHH,3
3,"Kumamolysin-As G319S, S354N, D358G, D368H (protein) MSDMEKPWKEGEEARAVLQGHARAQAPQAVDKGPVAGDERMAVTVVLRRQRAGELAAHVERQAAIAPHAREHLKREAFAASHGASLDDFAELRRFADAHGLALDRANVAAGTAVLSGPVDAINRAFGVELRHFDHPDGSYRSYLGEVTVPASIAPMIEAVLGLDTRPVARPHFRMQRRAEGGFEARSQAAAPTAYTPLDVAQAYQFPEGLDGQGQCIAIIELGGGYDEASLAQYFASLGVPAPQVVSVSVDGASNQPTGDPSGPDGEVELDIEVAGALAPGAKFAVYFAPNTDAGFLDAITTAIHDPTLKPSVVSISWSGPEDSWTSAAIAAMNRAFLDAAALGVTVLAAAGDNGSTGGEQDGLYHVHFPAASPYVLACGGTRLVASGGRIAQETVWNDGPDGGATGGGVSRIFPLPAWQEHANVPPSANPGASSGRGVPDLAGNADPATGYEVVIDGEATVIGGTSAVAPLFAALVARINQKLGKAVGYLNPTLYQLPADVFHDITEGNNDIANRAQIYQAGPGWDPCTGLGSPIGVRLLQALLPSASQPQPGSTENLYFQSGALEHHHHHH",5
4,Kumamolysin-As D358G (protein) MSDMEKPWKEGEEARAVLQGHARAQAPQAVDKGPVAGDERMAVTVVLRRQRAGELAAHVERQAAIAPHAREHLKREAFAASHGASLDDFAELRRFADAHGLALDRANVAAGTAVLSGPVDAINRAFGVELRHFDHPDGSYRSYLGEVTVPASIAPMIEAVLGLDTRPVARPHFRMQRRAEGGFEARSQAAAPTAYTPLDVAQAYQFPEGLDGQGQCIAIIELGGGYDEASLAQYFASLGVPAPQVVSVSVDGASNQPTGDPSGPDGEVELDIEVAGALAPGAKFAVYFAPNTDAGFLDAITTAIHDPTLKPSVVSISWGGPEDSWTSAAIAAMNRAFLDAAALGVTVLAAAGDSGSTGGEQDGLYHVDFPAASPYVLACGGTRLVASGGRIAQETVWNDGPDGGATGGGVSRIFPLPAWQEHANVPPSANPGASSGRGVPDLAGNADPATGYEVVIDGEATVIGGTSAVAPLFAALVARINQKLGKAVGYLNPTLYQLPADVFHDITEGNNDIANRAQIYQAGPGWDPCTGLGSPIGVRLLQALLPSASQPQPGSTENLYFQSGALEHHHHHH,3
5,Kumamolysin-As D358N (protein) MSDMEKPWKEGEEARAVLQGHARAQAPQAVDKGPVAGDERMAVTVVLRRQRAGELAAHVERQAAIAPHAREHLKREAFAASHGASLDDFAELRRFADAHGLALDRANVAAGTAVLSGPVDAINRAFGVELRHFDHPDGSYRSYLGEVTVPASIAPMIEAVLGLDTRPVARPHFRMQRRAEGGFEARSQAAAPTAYTPLDVAQAYQFPEGLDGQGQCIAIIELGGGYDEASLAQYFASLGVPAPQVVSVSVDGASNQPTGDPSGPDGEVELDIEVAGALAPGAKFAVYFAPNTDAGFLDAITTAIHDPTLKPSVVSISWGGPEDSWTSAAIAAMNRAFLDAAALGVTVLAAAGDSGSTNGEQDGLYHVDFPAASPYVLACGGTRLVASGGRIAQETVWNDGPDGGATGGGVSRIFPLPAWQEHANVPPSANPGASSGRGVPDLAGNADPATGYEVVIDGEATVIGGTSAVAPLFAALVARINQKLGKAVGYLNPTLYQLPADVFHDITEGNNDIANRAQIYQAGPGWDPCTGLGSPIGVRLLQALLPSASQPQPGSTENLYFQSGALEHHHHHH,4
6,"Kumamolysin-As D358G, D368H (protein) MSDMEKPWKEGEEARAVLQGHARAQAPQAVDKGPVAGDERMAVTVVLRRQRAGELAAHVERQAAIAPHAREHLKREAFAASHGASLDDFAELRRFADAHGLALDRANVAAGTAVLSGPVDAINRAFGVELRHFDHPDGSYRSYLGEVTVPASIAPMIEAVLGLDTRPVARPHFRMQRRAEGGFEARSQAAAPTAYTPLDVAQAYQFPEGLDGQGQCIAIIELGGGYDEASLAQYFASLGVPAPQVVSVSVDGASNQPTGDPSGPDGEVELDIEVAGALAPGAKFAVYFAPNTDAGFLDAITTAIHDPTLKPSVVSISWGGPEDSWTSAAIAAMNRAFLDAAALGVTVLAAAGDSGSTGGEQDGLYHVHFPAASPYVLACGGTRLVASGGRIAQETVWNDGPDGGATGGGVSRIFPLPAWQEHANVPPSANPGASSGRGVPDLAGNADPATGYEVVIDGEATVIGGTSAVAPLFAALVARINQKLGKAVGYLNPTLYQLPADVFHDITEGNNDIANRAQIYQAGPGWDPCTGLGSPIGVRLLQALLPSASQPQPGSTENLYFQSGALEHHHHHH",6
7,"Kumamolysin-As G319S, D358G, D368H (protein) MSDMEKPWKEGEEARAVLQGHARAQAPQAVDKGPVAGDERMAVTVVLRRQRAGELAAHVERQAAIAPHAREHLKREAFAASHGASLDDFAELRRFADAHGLALDRANVAAGTAVLSGPVDAINRAFGVELRHFDHPDGSYRSYLGEVTVPASIAPMIEAVLGLDTRPVARPHFRMQRRAEGGFEARSQAAAPTAYTPLDVAQAYQFPEGLDGQGQCIAIIELGGGYDEASLAQYFASLGVPAPQVVSVSVDGASNQPTGDPSGPDGEVELDIEVAGALAPGAKFAVYFAPNTDAGFLDAITTAIHDPTLKPSVVSISWSGPEDSWTSAAIAAMNRAFLDAAALGVTVLAAAGDSGSTGGEQDGLYHVHFPAASPYVLACGGTRLVASGGRIAQETVWNDGPDGGATGGGVSRIFPLPAWQEHANVPPSANPGASSGRGVPDLAGNADPATGYEVVIDGEATVIGGTSAVAPLFAALVARINQKLGKAVGYLNPTLYQLPADVFHDITEGNNDIANRAQIYQAGPGWDPCTGLGSPIGVRLLQALLPSASQPQPGSTENLYFQSGALEHHHHHH",7
